# B1: rbVEGF165: commercially available recombinant VEGF165 produced in bacteria (protein)
# chain: APMAEGGGQNHHEVVKFMDVYQRSYCHPIETLVDIFQEYPDEIEYIFKPSCVPLMRCGGCCNDEGLECVPTEESNITMQIMRIKPHQGQHIGEMSFLQHNKCECRPKKDRARQENPCGPCSERRKHLFVQDPQTCKCSCKNTDSRCKARQLELNERTCRCDKPRR
# Test system: ERK1/2
# Test: Activation of ERK1/2 signalling in HUVEC, western blotting
# Format: cell-based, human
# Details: HUVEC starved overnight, treated 5 min
# Description: FIG. 4: VEGF111 is biologically active in vitro. A and B: VEGF111 activates VEGF-R2 (A) and ERK1/2 (B) in HUVEC. HUVEC were treated with HEK293 conditioned mediums containing VEGF111, VEGF121 or VEGF165, commercially available recombinant VEGF165 produced in bacteria (cVEGF) (20 ng/ml each) or fetal calf serum (FCS, 10%) for 5 minutes. Untreated cells (−) or cells treated with conditioned medium of control HEK293 cells (CM) served as control. Total and phosphorylated VEGF-R2 and ERK1/2 were measured by western blotting. C: VEGF111 promotes proliferation of HUVEC. HUVEC were treated with HEK293 conditioned mediums containing VEGF111(black circles), VEGF121 (open triangles) or VEGF165 (black triangles) (10 ng/ml) or conditioned medium from control HEK293 cells (open circles). The DNA was measured in triplicate wells harvested at increasing time of treatment. D: representative microphotograph of -embryoid bodies after immunofluorescent labeling of CD31 as marker of vasculature. Bar: […]. E: A number of microphotographs (of 6 embryoid bodies from 3 independent experiments for each treatment) were taken at random and analyzed by 5 investigators not aware of the treatments, and a score (from 0 to 3, where 0 indicates lack of vascular labeling, and 3 maximum labeling) was given to each sample. F: CD31 mRNA level was measured in embryoid bodies (10 samples in 3 independent experiment for each group) as described in Material and Methods. Statistical analysis was performed using the homoscedastic Student T test. *: p<0.05; **: p<0.01; ***: p<0.001
# The proteins were migrated onto polyacrylamide gels and transferred onto PVDF transfer membranes (NEN, Boston, Mass.) by electroblotting. The membranes were blocked by non-fat dry milk (3% in PBS-tween buffer) and probed with first and horseradish peroxidase-conjugated secondary antibodies. Signals were detected by chemiluminescence using a ECL Western Blotting Analysis system (Amersham, Little Chalfont, England) and X-ray film exposure and quantified using a Fluor-S MultiImager (BioRad, Hercules, Calif.).
# VEGF induces a number of effects in endothelial cells, including autophosphorylation of its receptors, activation of the ERK1/2 MAPkinases pathways, induction of calcium transients and increased proliferation. The in vitro effects of recombinants VEGFs on HUVEC were compared. HUVEC were starved overnight and treated for five min. with reVEGFs. […] Conditioned medium from HEK293 cells transfected with the empty vector had no effect. To further confirm the biological activity of VEGF111 the activation of ERK1/2 signalling pathways was investigated by western blotting using monoclonal phospho-specific antibodies. HUVEC were starved overnight and treated with the three reVEGF isoforms, as well as rbVEGF165, for 5 min. […]
molecule,measurement,value
B1,phosphorylation of ERK1/2,induced

# From US20100287625A1, “VEGF VARIANTS” (UNIVERSITE DE LIEGE, priority 2006, published 2010)
